Each sequence was assayed against EPHB2 (UniProt P29323) (assay: phosphorylation enrichment, bacterial display (enrichment ratio); higher = better substrate or ligand; peptides without Tyr show the background).
Chain of EPHB2 (P29323 whole entry, looked up): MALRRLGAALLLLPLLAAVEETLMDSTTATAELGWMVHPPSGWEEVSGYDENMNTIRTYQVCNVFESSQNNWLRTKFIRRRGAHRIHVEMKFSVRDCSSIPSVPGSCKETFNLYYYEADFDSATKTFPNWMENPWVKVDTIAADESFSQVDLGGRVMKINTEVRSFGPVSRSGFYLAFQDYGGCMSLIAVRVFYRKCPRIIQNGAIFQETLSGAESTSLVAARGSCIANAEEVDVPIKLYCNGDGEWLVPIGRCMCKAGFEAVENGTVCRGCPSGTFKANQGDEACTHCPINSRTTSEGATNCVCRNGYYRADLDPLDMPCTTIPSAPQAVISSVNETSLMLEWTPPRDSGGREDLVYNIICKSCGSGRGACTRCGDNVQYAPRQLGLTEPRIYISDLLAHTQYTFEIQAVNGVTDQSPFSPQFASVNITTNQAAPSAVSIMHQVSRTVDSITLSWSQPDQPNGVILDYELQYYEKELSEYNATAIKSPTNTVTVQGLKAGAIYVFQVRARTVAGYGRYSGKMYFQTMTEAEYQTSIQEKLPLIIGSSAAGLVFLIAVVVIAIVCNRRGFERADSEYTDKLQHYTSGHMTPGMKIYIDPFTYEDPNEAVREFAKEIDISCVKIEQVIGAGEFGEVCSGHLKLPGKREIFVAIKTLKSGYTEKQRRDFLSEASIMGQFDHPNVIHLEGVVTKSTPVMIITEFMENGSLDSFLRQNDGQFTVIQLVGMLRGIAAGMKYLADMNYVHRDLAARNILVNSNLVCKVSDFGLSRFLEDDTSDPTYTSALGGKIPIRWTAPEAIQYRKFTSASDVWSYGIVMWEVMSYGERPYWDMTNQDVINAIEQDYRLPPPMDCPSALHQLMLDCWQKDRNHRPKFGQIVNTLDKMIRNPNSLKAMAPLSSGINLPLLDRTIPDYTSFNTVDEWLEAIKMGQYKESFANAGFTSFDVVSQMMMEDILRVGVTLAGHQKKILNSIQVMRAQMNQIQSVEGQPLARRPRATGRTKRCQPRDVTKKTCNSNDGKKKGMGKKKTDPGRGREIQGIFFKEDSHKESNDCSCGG
Work on AVRFIYTIDGS [DCX_Y105_G100A_YF] yielded a phosphorylation enrichment of 0.552. Sequence EPFELYCEMGS [CBL_Y371_Q367P_YF] has a phosphorylation enrichment of 2.31. Work on DPHQQYYIAMD [TBX15_Y159] yielded a phosphorylation enrichment of 0.593. ATQDDYVLEVR [PTPRZ1_Y2179] showed a phosphorylation enrichment of 0.62. NVTGHYISPFH [PPA2_Y59] gave a phosphorylation enrichment of 0.493. FYVVRYCWLRR [MPZ_Y181] was tested, and the phosphorylation enrichment was 0.508. For AGDGRYEVLFL [SEMA3F_Y478_A474G], the phosphorylation enrichment was 0.667. EVASVYQSYQP [MAVS_Y92] showed a phosphorylation enrichment of 0.622. RLRKYYLGKYL [KLB_Y906] gave a phosphorylation enrichment of 0.661. Sequence TGNGFYFRVFS [MYBPC3_Y1136_I1131T_YF] has a phosphorylation enrichment of 0.517. Work on PVKTPYSLKRW [BMPR2_Y979_R974P] yielded a phosphorylation enrichment of 0.84. LTNDRYLATLT [IL6ST_Y396] showed a phosphorylation enrichment of 0.709. For STKELYEKYMI, the phosphorylation enrichment was 0.594. VLALWYFFLTN [ZDHHC23_Y127_H132N_YF] was tested, and the phosphorylation enrichment was 0.63. In the case of GPTLSYGRDGR [MATR3_Y158], the phosphorylation enrichment is reported as 0.347. RGKDNYETSQL [SPP1_Y225_S224N] gave a phosphorylation enrichment of 0.628. Sequence SLDLSYYPTSS [EMD_Y181] has a phosphorylation enrichment of 0.566. Work on VPFAQYLAMNK [HARS1_Y138_R137Q] yielded a phosphorylation enrichment of 0.431. Sequence PYRFIYMAVQH [PTPN11_Y515_Q510P] has a phosphorylation enrichment of 2.45. QITQVCGFYDE [PPP2CA_Y127_Y127C] showed a phosphorylation enrichment of 0.849. In the case of TVQIMYGCDVG [HLA-A_Y123_I119V], the phosphorylation enrichment is reported as 0.773. Work on SIFKDYFRFNF [PLA2G2D_Y85_YF] yielded a phosphorylation enrichment of 0.537. KIKLNYTLPQD [NRAP_Y523_N519I] showed a phosphorylation enrichment of 0.447. EFEGLYQEGGG [TMEM159_Y159] gave a phosphorylation enrichment of 0.579. EEQKKYFNAMK [SCN5A_Y1494_YF] showed a phosphorylation enrichment of 0.474. With TEDELYQLFLQ [RASGRP2_Y378_S381F] the phosphorylation enrichment was 0.825. With SLKEFYGEDAK [ALDH3A1_Y272] the phosphorylation enrichment was 0.472. Sequence FPQARYHWLVL [APTX_Y214_K211Q_YF] has a phosphorylation enrichment of 0.597. FADIAYNYHHG [PAH_Y166_R169H] showed a phosphorylation enrichment of 0.385. DHFNQYEQQKM [CHD7_Y75_YF] showed a phosphorylation enrichment of 0.462. ALAPKYHGGGG [HBB_Y146_H144P] gave a phosphorylation enrichment of 0.356. For NFDRVYIFHLR [MYOF_Y1137_YF], the phosphorylation enrichment was 0.559. KYLENYYDLKK [MMP3_Y41] showed a phosphorylation enrichment of 2.77.

These sequences were tested against FGFR1 (UniProt P11362) in the same assay as above.
Chain of FGFR1 (P11362 whole entry, looked up): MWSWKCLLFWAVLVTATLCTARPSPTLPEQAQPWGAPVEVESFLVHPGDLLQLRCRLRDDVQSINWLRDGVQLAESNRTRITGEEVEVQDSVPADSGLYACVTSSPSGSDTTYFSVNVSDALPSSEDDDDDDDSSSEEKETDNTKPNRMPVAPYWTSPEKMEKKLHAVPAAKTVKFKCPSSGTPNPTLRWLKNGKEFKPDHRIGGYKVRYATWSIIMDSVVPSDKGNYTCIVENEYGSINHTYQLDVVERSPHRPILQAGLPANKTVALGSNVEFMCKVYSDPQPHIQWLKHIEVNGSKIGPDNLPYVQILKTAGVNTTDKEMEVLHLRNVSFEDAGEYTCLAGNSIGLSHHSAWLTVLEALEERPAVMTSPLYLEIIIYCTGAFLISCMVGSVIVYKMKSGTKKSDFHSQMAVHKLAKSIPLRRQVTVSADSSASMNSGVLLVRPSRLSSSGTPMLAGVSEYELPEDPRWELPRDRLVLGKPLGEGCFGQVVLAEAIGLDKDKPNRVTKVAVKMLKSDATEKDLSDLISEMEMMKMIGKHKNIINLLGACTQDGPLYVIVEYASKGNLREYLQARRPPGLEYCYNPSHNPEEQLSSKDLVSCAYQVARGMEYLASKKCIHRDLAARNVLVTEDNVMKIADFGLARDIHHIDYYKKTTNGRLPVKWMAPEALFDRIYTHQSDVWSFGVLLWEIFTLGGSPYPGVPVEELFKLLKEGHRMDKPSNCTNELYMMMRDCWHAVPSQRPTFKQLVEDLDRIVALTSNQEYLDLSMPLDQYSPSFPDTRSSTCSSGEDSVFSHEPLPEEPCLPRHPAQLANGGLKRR
AVRFIYTIDGS [DCX_Y105_G100A_YF] was tested, and the phosphorylation enrichment was 0.453. For EPFELYCEMGS [CBL_Y371_Q367P_YF], the phosphorylation enrichment was 0.897. DPHQQYYIAMD [TBX15_Y159] was tested, and the phosphorylation enrichment was 6.27. ATQDDYVLEVR [PTPRZ1_Y2179] was tested, and the phosphorylation enrichment was 0.552. With NVTGHYISPFH [PPA2_Y59] the phosphorylation enrichment was 0.459. Sequence FYVVRYCWLRR [MPZ_Y181] has a phosphorylation enrichment of 0.595. With AGDGRYEVLFL [SEMA3F_Y478_A474G] the phosphorylation enrichment was 0.533. Work on EVASVYQSYQP [MAVS_Y92] yielded a phosphorylation enrichment of 0.518. In the case of RLRKYYLGKYL [KLB_Y906], the phosphorylation enrichment is reported as 0.584. TGNGFYFRVFS [MYBPC3_Y1136_I1131T_YF] was tested, and the phosphorylation enrichment was 0.433. PVKTPYSLKRW [BMPR2_Y979_R974P] gave a phosphorylation enrichment of 0.653. LTNDRYLATLT [IL6ST_Y396] was tested, and the phosphorylation enrichment was 0.676. Work on STKELYEKYMI yielded a phosphorylation enrichment of 0.484. VLALWYFFLTN [ZDHHC23_Y127_H132N_YF] showed a phosphorylation enrichment of 2.05. For GPTLSYGRDGR [MATR3_Y158], the phosphorylation enrichment was 0.363. In the case of RGKDNYETSQL [SPP1_Y225_S224N], the phosphorylation enrichment is reported as 0.565. Sequence SLDLSYYPTSS [EMD_Y181] has a phosphorylation enrichment of 2.62. VPFAQYLAMNK [HARS1_Y138_R137Q] showed a phosphorylation enrichment of 0.494. For PYRFIYMAVQH [PTPN11_Y515_Q510P], the phosphorylation enrichment was 1.87. With QITQVCGFYDE [PPP2CA_Y127_Y127C] the phosphorylation enrichment was 0.648. In the case of TVQIMYGCDVG [HLA-A_Y123_I119V], the phosphorylation enrichment is reported as 0.539. SIFKDYFRFNF [PLA2G2D_Y85_YF] gave a phosphorylation enrichment of 3.99. KIKLNYTLPQD [NRAP_Y523_N519I] gave a phosphorylation enrichment of 0.48. With EFEGLYQEGGG [TMEM159_Y159] the phosphorylation enrichment was 0.5. Work on EEQKKYFNAMK [SCN5A_Y1494_YF] yielded a phosphorylation enrichment of 0.421. TEDELYQLFLQ [RASGRP2_Y378_S381F] gave a phosphorylation enrichment of 1.37. Work on SLKEFYGEDAK [ALDH3A1_Y272] yielded a phosphorylation enrichment of 0.472. With FPQARYHWLVL [APTX_Y214_K211Q_YF] the phosphorylation enrichment was 1.92. In the case of FADIAYNYHHG [PAH_Y166_R169H], the phosphorylation enrichment is reported as 0.433. In the case of DHFNQYEQQKM [CHD7_Y75_YF], the phosphorylation enrichment is reported as 0.468. Work on ALAPKYHGGGG [HBB_Y146_H144P] yielded a phosphorylation enrichment of 0.327. Sequence NFDRVYIFHLR [MYOF_Y1137_YF] has a phosphorylation enrichment of 0.535. KYLENYYDLKK [MMP3_Y41] showed a phosphorylation enrichment of 7.68.

These sequences were tested against MERTK (UniProt Q12866) in the same assay as above.
Chain of MERTK (Q12866 whole entry, looked up): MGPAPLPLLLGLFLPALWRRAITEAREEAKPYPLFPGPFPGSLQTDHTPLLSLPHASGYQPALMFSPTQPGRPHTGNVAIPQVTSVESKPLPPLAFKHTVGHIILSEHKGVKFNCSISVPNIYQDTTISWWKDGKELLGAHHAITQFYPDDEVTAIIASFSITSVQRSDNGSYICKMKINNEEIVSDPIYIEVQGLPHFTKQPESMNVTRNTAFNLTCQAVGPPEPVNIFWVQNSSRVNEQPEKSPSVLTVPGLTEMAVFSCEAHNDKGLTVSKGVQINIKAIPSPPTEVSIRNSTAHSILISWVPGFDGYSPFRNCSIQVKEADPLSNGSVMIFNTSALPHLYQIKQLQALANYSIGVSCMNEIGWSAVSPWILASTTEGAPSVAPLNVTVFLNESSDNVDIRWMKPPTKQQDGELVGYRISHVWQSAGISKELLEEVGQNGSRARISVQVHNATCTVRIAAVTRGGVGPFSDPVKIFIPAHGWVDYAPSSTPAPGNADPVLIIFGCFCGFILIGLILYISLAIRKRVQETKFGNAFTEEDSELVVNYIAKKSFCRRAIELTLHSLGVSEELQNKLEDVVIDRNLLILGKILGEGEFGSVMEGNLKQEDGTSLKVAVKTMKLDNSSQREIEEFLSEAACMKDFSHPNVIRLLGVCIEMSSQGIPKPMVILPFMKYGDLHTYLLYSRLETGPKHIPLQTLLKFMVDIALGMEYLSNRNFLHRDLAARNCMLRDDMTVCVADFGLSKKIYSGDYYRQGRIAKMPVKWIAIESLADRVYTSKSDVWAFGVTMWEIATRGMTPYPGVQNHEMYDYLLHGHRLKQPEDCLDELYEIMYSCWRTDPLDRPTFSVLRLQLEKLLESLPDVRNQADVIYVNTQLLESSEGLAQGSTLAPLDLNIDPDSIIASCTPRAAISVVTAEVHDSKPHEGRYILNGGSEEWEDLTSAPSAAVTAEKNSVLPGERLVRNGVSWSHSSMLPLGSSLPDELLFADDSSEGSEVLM
Work on AVRFIYTIDGS [DCX_Y105_G100A_YF] yielded a phosphorylation enrichment of 0.424. With EPFELYCEMGS [CBL_Y371_Q367P_YF] the phosphorylation enrichment was 1.16. DPHQQYYIAMD [TBX15_Y159] showed a phosphorylation enrichment of 2.7. ATQDDYVLEVR [PTPRZ1_Y2179] was tested, and the phosphorylation enrichment was 0.492. NVTGHYISPFH [PPA2_Y59] gave a phosphorylation enrichment of 0.563. FYVVRYCWLRR [MPZ_Y181] was tested, and the phosphorylation enrichment was 0.604. AGDGRYEVLFL [SEMA3F_Y478_A474G] showed a phosphorylation enrichment of 1.08. For EVASVYQSYQP [MAVS_Y92], the phosphorylation enrichment was 0.569. In the case of RLRKYYLGKYL [KLB_Y906], the phosphorylation enrichment is reported as 0.73. For TGNGFYFRVFS [MYBPC3_Y1136_I1131T_YF], the phosphorylation enrichment was 0.36. Sequence PVKTPYSLKRW [BMPR2_Y979_R974P] has a phosphorylation enrichment of 0.586. LTNDRYLATLT [IL6ST_Y396] was tested, and the phosphorylation enrichment was 0.597. Work on STKELYEKYMI yielded a phosphorylation enrichment of 0.412. VLALWYFFLTN [ZDHHC23_Y127_H132N_YF] was tested, and the phosphorylation enrichment was 0.963. Sequence GPTLSYGRDGR [MATR3_Y158] has a phosphorylation enrichment of 0.488. For RGKDNYETSQL [SPP1_Y225_S224N], the phosphorylation enrichment was 0.689. Sequence SLDLSYYPTSS [EMD_Y181] has a phosphorylation enrichment of 0.661. For VPFAQYLAMNK [HARS1_Y138_R137Q], the phosphorylation enrichment was 0.403. PYRFIYMAVQH [PTPN11_Y515_Q510P] showed a phosphorylation enrichment of 2.14. For QITQVCGFYDE [PPP2CA_Y127_Y127C], the phosphorylation enrichment was 0.522. With TVQIMYGCDVG [HLA-A_Y123_I119V] the phosphorylation enrichment was 0.444. SIFKDYFRFNF [PLA2G2D_Y85_YF] gave a phosphorylation enrichment of 0.579. In the case of KIKLNYTLPQD [NRAP_Y523_N519I], the phosphorylation enrichment is reported as 0.53. EFEGLYQEGGG [TMEM159_Y159] showed a phosphorylation enrichment of 0.456. Sequence EEQKKYFNAMK [SCN5A_Y1494_YF] has a phosphorylation enrichment of 0.428. With TEDELYQLFLQ [RASGRP2_Y378_S381F] the phosphorylation enrichment was 2.01. In the case of SLKEFYGEDAK [ALDH3A1_Y272], the phosphorylation enrichment is reported as 0.388. For FPQARYHWLVL [APTX_Y214_K211Q_YF], the phosphorylation enrichment was 1.24. FADIAYNYHHG [PAH_Y166_R169H] gave a phosphorylation enrichment of 0.462. DHFNQYEQQKM [CHD7_Y75_YF] gave a phosphorylation enrichment of 0.425. ALAPKYHGGGG [HBB_Y146_H144P] showed a phosphorylation enrichment of 0.386. In the case of NFDRVYIFHLR [MYOF_Y1137_YF], the phosphorylation enrichment is reported as 0.46. Work on KYLENYYDLKK [MMP3_Y41] yielded a phosphorylation enrichment of 0.709.

These sequences were tested against Fyn (UniProt P06241) in the same assay as above.
Chain of Fyn (P06241 whole entry, looked up): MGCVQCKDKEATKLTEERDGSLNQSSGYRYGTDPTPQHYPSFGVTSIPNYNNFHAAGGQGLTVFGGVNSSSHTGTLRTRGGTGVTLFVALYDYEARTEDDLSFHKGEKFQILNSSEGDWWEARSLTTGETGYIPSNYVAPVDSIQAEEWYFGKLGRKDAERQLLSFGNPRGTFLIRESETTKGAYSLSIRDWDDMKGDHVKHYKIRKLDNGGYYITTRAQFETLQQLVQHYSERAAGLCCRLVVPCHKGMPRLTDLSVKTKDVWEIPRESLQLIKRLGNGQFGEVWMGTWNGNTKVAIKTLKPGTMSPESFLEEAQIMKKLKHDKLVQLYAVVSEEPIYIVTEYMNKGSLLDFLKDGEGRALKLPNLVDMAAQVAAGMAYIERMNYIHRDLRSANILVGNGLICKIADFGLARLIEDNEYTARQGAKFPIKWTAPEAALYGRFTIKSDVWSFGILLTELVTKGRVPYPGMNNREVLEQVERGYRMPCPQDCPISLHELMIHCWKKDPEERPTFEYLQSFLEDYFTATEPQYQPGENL
Sequence AVRFIYTIDGS [DCX_Y105_G100A_YF] has a phosphorylation enrichment of 1.56. For EPFELYCEMGS [CBL_Y371_Q367P_YF], the phosphorylation enrichment was 1.26. DPHQQYYIAMD [TBX15_Y159] gave a phosphorylation enrichment of 0.625. ATQDDYVLEVR [PTPRZ1_Y2179] showed a phosphorylation enrichment of 0.626. For NVTGHYISPFH [PPA2_Y59], the phosphorylation enrichment was 0.448. FYVVRYCWLRR [MPZ_Y181] was tested, and the phosphorylation enrichment was 0.62. With AGDGRYEVLFL [SEMA3F_Y478_A474G] the phosphorylation enrichment was 0.455. For EVASVYQSYQP [MAVS_Y92], the phosphorylation enrichment was 9.7. With RLRKYYLGKYL [KLB_Y906] the phosphorylation enrichment was 0.707. For TGNGFYFRVFS [MYBPC3_Y1136_I1131T_YF], the phosphorylation enrichment was 0.393. PVKTPYSLKRW [BMPR2_Y979_R974P] gave a phosphorylation enrichment of 0.63. LTNDRYLATLT [IL6ST_Y396] showed a phosphorylation enrichment of 0.746. STKELYEKYMI showed a phosphorylation enrichment of 0.602. Work on VLALWYFFLTN [ZDHHC23_Y127_H132N_YF] yielded a phosphorylation enrichment of 0.535. Sequence GPTLSYGRDGR [MATR3_Y158] has a phosphorylation enrichment of 0.33. Sequence RGKDNYETSQL [SPP1_Y225_S224N] has a phosphorylation enrichment of 0.549. For SLDLSYYPTSS [EMD_Y181], the phosphorylation enrichment was 0.515. With VPFAQYLAMNK [HARS1_Y138_R137Q] the phosphorylation enrichment was 0.458. For PYRFIYMAVQH [PTPN11_Y515_Q510P], the phosphorylation enrichment was 5.01. QITQVCGFYDE [PPP2CA_Y127_Y127C] showed a phosphorylation enrichment of 0.636. Sequence TVQIMYGCDVG [HLA-A_Y123_I119V] has a phosphorylation enrichment of 0.575. For SIFKDYFRFNF [PLA2G2D_Y85_YF], the phosphorylation enrichment was 0.495. With KIKLNYTLPQD [NRAP_Y523_N519I] the phosphorylation enrichment was 0.454. Work on EFEGLYQEGGG [TMEM159_Y159] yielded a phosphorylation enrichment of 0.675. EEQKKYFNAMK [SCN5A_Y1494_YF] gave a phosphorylation enrichment of 0.489. For TEDELYQLFLQ [RASGRP2_Y378_S381F], the phosphorylation enrichment was 4.54. For SLKEFYGEDAK [ALDH3A1_Y272], the phosphorylation enrichment was 0.51. FPQARYHWLVL [APTX_Y214_K211Q_YF] showed a phosphorylation enrichment of 0.459. Work on FADIAYNYHHG [PAH_Y166_R169H] yielded a phosphorylation enrichment of 0.469. DHFNQYEQQKM [CHD7_Y75_YF] showed a phosphorylation enrichment of 0.382. Sequence ALAPKYHGGGG [HBB_Y146_H144P] has a phosphorylation enrichment of 0.31. Work on NFDRVYIFHLR [MYOF_Y1137_YF] yielded a phosphorylation enrichment of 0.414. KYLENYYDLKK [MMP3_Y41] gave a phosphorylation enrichment of 2.24.

From the supplement of paper PMC10065799, “High-throughput profiling of sequence recognition by tyrosine kinases and SH2 domains using bacterial peptide display” (eLife, 2023)
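Further: 11-residue human phosphosite peptides and single-mutation variants displayed on the E. coli surface, counted by deep sequencing, each peptide's frequency after selection divided by its frequency in the unselected input library; frequency after pTyr selection over input frequency; kinase dosed for 20-30% of maximal phosphorylation in three min.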
